Results as given in patent US20260009008A1, “SYNTHETIC GENOME EDITING SYSTEM” (Pencil Biosciences Limited, priority 2021, published 2026).
“Also recorded” adds a separate entry of the source.

What was measured:
[1] = Thioflavin T assay; assay type: physicochemical; conditions: 200 μM peptide, 25 μM ThT, 37° C., excitation 450 nm
Description: Appropriate self-assembling peptides (alternatively referred to as folding peptides as in a single folding structure) will form a structure which can be identified by thioflavin T (Tht) binding. Fluorescence emission assay of Thioflavin T binding is commonly employed to detect amyloid fibrils. Upon binding to amyloid fibrils, ThT gives a strong fluorescence signal at approximately 482-485 nm when excited at 450 nm (Xue et al. (2017) Royal. Soc. Open Sci. 4:160696, 'Thioflavin T as an amyloid dye: fibril quantification, optimal concentration and effect on aggregation).
Such peptides were tested for ability to self-assemble to provide a β-sheet supramolecular structure and nickase activity. Ability to provide a β-sheet supramolecular structure was determined by thioflavin T fluorescence binding (Xue et al. (2017) Royal Soc. Open Sci. 4:160696). Nickase activity was investigated by means of a molecular beacon assay combined with a gel plasmid cleavage assay.
Thioflavin T (ThT) was mixed with the peptides in reaction buffer solution. Peptides were diluted to 200 μM (from a stock solution of 4.4 mM in DMSO) using a reaction buffer solution (the same buffer as used for the initial molecular beacon assays as set out below). […] The emission signal at 485 nm was measured every 5 minutes using an excitation wavelength of 450 nm. […]

[2] = system: plasmid DNA (pBR322); assay: Gel plasmid cleavage assay; assay type: biochemical
Description: For this reason a further gel plasmid cleavage assay was employed to look for cleavage. Such a gel cleavage assay can differentiate between plasmid that is intact (no cleavage), nicked (ssDNA cleavage) and linearised (dsDNA cleavage) as the three plasmid species will migrate differently on an agarose gel. Intact plasmids have a supercoiled structure and therefore can migrate easily through an agarose gel whereas a ssDNA cleavage on the plasmid will relax this supercoiled structure. This produces a relaxed circle/nicked structure that migrates more slowly through the pores. The dsDNA cleavage of a plasmid produces a linearised plasmid. The linear structure migrates faster than a relaxed circular structure although not as fast as the supercoiled structure.
To optimize the assay, plasmid DNA (pBR322) was mixed with increasing concentrations of the peptide bL or bN, in the presence of Zn^2 + ions. […] The percentage of nicked species increases with greater peptide concentration for both bL and bN. […] An increasing proportion of the plasmid DNA is also observed in the wells of the gel. This DNA can be binding to the peptide causing a complex that is unable to migrate into the gel.

[3] = Observation of peptide aggregation / precipitation; assay type: physicochemical

For LELDLHL [bD], which “Thioflavin T emission signal at 485 nm (amyloid-like fibrils)” value [1] is on record?
The value was “high emission signal was measured instantly; also recorded: higher propensity to produce a highly stable amyloid beta sheet structure; also recorded: indicative of production of amyloid β-sheet structure”.

And the cleavage of plasmid [2]?
The cleavage of plasmid was “some cleavage”.

And the “percentage of cleavage versus peptide concentration” value [2]?
Its value is “increase with peptide concentration”.

And the “aggregation / precipitation of peptide” value [3]?
The value was “least propensity to aggregate and to precipitate”.
